B1: GA-binding protein alpha chain, residues 172 to 250; numbered along this chain, Q06546 (parent)
chain: GYRKEQERLGIPYDPIQWSTDQVLHWVVWVMKEFSMTDIDLTTLNISGRELCSLNQEDFFQRVPRGEILWSHLELLRKY

Variants of: B1
Assay: abundance fitness (aPCA) (normalised: wild type 0, dead -1); higher = more abundant; growth selection in yeast, the domain comes from the species named
Conditions: Homo sapiens

Abundance fitness of substitutions, site by site:
L44: G -0.711, H -0.825, K -0.862, M -0.019, P -0.865, Q -1.09, R -0.989, S -0.745, V -0.193
N45: A 0.003, C -0.063, D -0.148, E -0.039, F -0.348, H 0.015, I -0.251, K 0.032, L -0.195, M -0.054, P -0.373, Q -0.086, R -0.038, S -0.019, T -0.01, V -0.122, W -0.276, Y -0.191
I46: A -0.584, C -0.17, E -0.939, F -0.237, G -0.796, H -0.874, K -0.835, L -0.034, M 0.069, N -0.644, P -1, Q -0.828, R -0.909, S -1, T -0.654, V -0.109, W -0.257
S47: A -0.161, C -0.039, D -0.07, E -0.061, F -0.866, G -0.14, H -0.266, I -0.279, K -0.137, M -0.446, N -0.041, P -0.04, Q -0.276, R -0.277, T 0.03, V -0.418, W -0.812, Y -0.637
G48: A -0.788, C -0.919, D -0.804, F -0.796, H -0.305, K -0.951, L -0.982, M -0.99, N -0.578, P -0.633, Q -1.02, R -0.944, S -0.804, T -0.813, V -0.884, W -0.84
R49: A 0.006, C -0.109, D -0.1, E 0.041, F -0.113, G -0.125, H -0.152, I -0.203, K -0.086, L -0.072, M 0.042, N -0.257, P 0.001, Q -0.021, S -0.006, T -0.085, V -0.082, W -0.143, Y -0.077
E50: A -0.074, C -0.088, D -0.041, G -0.594, H -0.2, I -0.156, K -0.041, L -0.201, M -0.24, N -0.252, P -0.94, Q 0.013, R -0.249, S -0.291, W -0.672, Y -0.117
L51: A -0.982, D -0.786, E -0.818, F -0.815, G -0.92, H -0.928, I -0.374, K -1.13, M -0.163, N -0.897, P -0.746, Q -0.951, R -0.813, T -0.825, V -0.652, W -1.04
C52: A -0.22, E -0.457, F -0.333, G -0.575, I 0.076, K -0.887, L -0.077, N -0.47, P -1.03, Q -0.615, S -0.335, T -0.226, V -0.122, Y -0.431
S53: A -0.063, C -0.061, D 0.076, F -0.269, G -0.068, H -0.171, L -0.108, M -0.121, N -0.033, P -0.522, Q -0.085, R -0.057, T -0.144, V -0.331, W -0.381
L54: C -0.374, D -0.842, E -0.484, F -0.051, G -0.791, H -0.486, I -0.157, K -0.649, M -0.009

— the Human Domainome abundance scans (Beltran et al. 2025)
